The values below come from patent US20220033439A1 (SEOUL NATIONAL UNIVERSITY R AND DB FOUNDATION, published 2022).

The chains are these.
B2: Mycobacterium tuberculosis toxin protein VapC26 (enzyme)
chain: MIIDTSALLAYFDAAEPDHAAVSECIDSSADALVVSPYVVAELDYLVATRVGVDAELAVLRELAGGAWELANCGAAEIEQAARIVTKYQDQRIGIADAANVVLADRYRTRTILTLDRRHFSALRPIGGGRFTVIP

In data set [1] the target is B2. Kind of data set: size exclusion chromatography with multi-angle light scattering. A general note: SEC sorts molecules by how far they enter the pores of the column.
Data set [2] deals with the molecule itself. As to the kind of experiment: crystal structure and size exclusion chromatography with MALS; VapB26 homodimer.
Data set [3] deals with the molecule itself. Kind of data set: crystal structure; VapC26 homodimer.

B1: Mycobacterium tuberculosis antitoxin protein VapB26 (other)
chain: MDKTTVYLPDELKAAVKRAARQRGVSEAQVIRESIRAAVGGAKPPPRGGLYAGSEPIARRVDELLAGFGER
As to B1, the binding result in data set [1] and in data set [2] was “binds” throughout.
Turning to B2, the binding result in data set [3] is “binds”.
